The record followed here is patent publication US20120093810A1 (EVEC, published 2012).

In the experiment the target is T1, GST-fused HCMV-AD1 (AD1 region of HCMV glycoprotein gB) (human cytomegalovirus, AD169 strain, UniProt F5HB53 485-651).
T1 construct: also called solid-phased AD1; AD1 antigen; not shown: glutathione S-transferase (GST) fusion partner
The experiment can be described thus: ELISA on solid-phased AD1 (5 µg/mL). On the technique in general: ELISA stands for enzyme-linked immunosorbent assay.

T1 sequence (F5HB53 485-651): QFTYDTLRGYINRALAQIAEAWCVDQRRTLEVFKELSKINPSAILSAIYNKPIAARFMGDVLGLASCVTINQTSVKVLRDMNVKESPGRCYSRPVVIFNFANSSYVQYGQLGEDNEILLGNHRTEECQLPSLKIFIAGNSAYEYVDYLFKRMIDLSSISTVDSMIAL

B1: EV2038 CDR-H3 variant P125A (antibody, V domains shown)
VH: QVQLQQWGAGLLKPSETLSLTCAVYGGSFSGYYWGWIRQPPGKGLEWIGEINHSGSANSNPSLKSRVTMSVDTSKNQFSLKVSSVTAADTAVYFCARVTRDLEWIAGDYYMDVWGKGTTVTVSS
VL: QSVLTQPPSASGTPGQRVSISCSGSLSNIGTNYVYWYQQLPGTAPKLLIFKNNQRPSGVPDRFSGSKSGTSASLAISGLRSEDEADYYCAAWDDSLNGYVFGTGTKVTVLG
notes: original EV2038 L-chain
Turning to B1, the binding result is given as “no binding (tested: 1 µg/mL, dilution series)”.

B2: EV2038 CDR-H3 variant P125I (antibody, V domains shown)
VH: QVQLQQWGAGLLKPSETLSLTCAVYGGSFSGYYWGWIRQPPGKGLEWIGEINHSGSANSNPSLKSRVTMSVDTSKNQFSLKVSSVTAADTAVYFCARVTRDLEWIIGDYYMDVWGKGTTVTVSS
VL: QSVLTQPPSASGTPGQRVSISCSGSLSNIGTNYVYWYQQLPGTAPKLLIFKNNQRPSGVPDRFSGSKSGTSASLAISGLRSEDEADYYCAAWDDSLNGYVFGTGTKVTVLG
notes: original EV2038 L-chain
Regarding B2, the binding result is recorded as “no binding (tested: 1 µg/mL, dilution series)”.

B3: EV2038 CDR-H3 variant P125M (antibody, V domains shown)
VH: QVQLQQWGAGLLKPSETLSLTCAVYGGSFSGYYWGWIRQPPGKGLEWIGEINHSGSANSNPSLKSRVTMSVDTSKNQFSLKVSSVTAADTAVYFCARVTRDLEWIMGDYYMDVWGKGTTVTVSS
VL: QSVLTQPPSASGTPGQRVSISCSGSLSNIGTNYVYWYQQLPGTAPKLLIFKNNQRPSGVPDRFSGSKSGTSASLAISGLRSEDEADYYCAAWDDSLNGYVFGTGTKVTVLG
notes: original EV2038 L-chain
Take B3: the binding result is “no binding (tested: 1 µg/mL, dilution series)”.

B4: EV2038 CDR-H3 variant P125T (antibody, V domains shown)
VH: QVQLQQWGAGLLKPSETLSLTCAVYGGSFSGYYWGWIRQPPGKGLEWIGEINHSGSANSNPSLKSRVTMSVDTSKNQFSLKVSSVTAADTAVYFCARVTRDLEWITGDYYMDVWGKGTTVTVSS
VL: QSVLTQPPSASGTPGQRVSISCSGSLSNIGTNYVYWYQQLPGTAPKLLIFKNNQRPSGVPDRFSGSKSGTSASLAISGLRSEDEADYYCAAWDDSLNGYVFGTGTKVTVLG
notes: original EV2038 L-chain
With B4, the binding result is listed as “no binding (tested: 1 µg/mL, dilution series)”.

B5: EV2038 CDR-H3 variant P125S (antibody, V domains shown)
VH: QVQLQQWGAGLLKPSETLSLTCAVYGGSFSGYYWGWIRQPPGKGLEWIGEINHSGSANSNPSLKSRVTMSVDTSKNQFSLKVSSVTAADTAVYFCARVTRDLEWISGDYYMDVWGKGTTVTVSS
VL: QSVLTQPPSASGTPGQRVSISCSGSLSNIGTNYVYWYQQLPGTAPKLLIFKNNQRPSGVPDRFSGSKSGTSASLAISGLRSEDEADYYCAAWDDSLNGYVFGTGTKVTVLG
notes: original EV2038 L-chain
In the case of B5, the binding result is “no binding (tested: 1 µg/mL, dilution series)”.

B6: EV2038 CDR-H3 variant P125C (antibody, V domains shown)
VH: QVQLQQWGAGLLKPSETLSLTCAVYGGSFSGYYWGWIRQPPGKGLEWIGEINHSGSANSNPSLKSRVTMSVDTSKNQFSLKVSSVTAADTAVYFCARVTRDLEWICGDYYMDVWGKGTTVTVSS
VL: QSVLTQPPSASGTPGQRVSISCSGSLSNIGTNYVYWYQQLPGTAPKLLIFKNNQRPSGVPDRFSGSKSGTSASLAISGLRSEDEADYYCAAWDDSLNGYVFGTGTKVTVLG
notes: original EV2038 L-chain
Take B6: the binding result is on record as “no binding (tested: 1 µg/mL, dilution series)”.

B7: EV2038 CDR-H3 variant P125N (antibody, V domains shown)
VH: QVQLQQWGAGLLKPSETLSLTCAVYGGSFSGYYWGWIRQPPGKGLEWIGEINHSGSANSNPSLKSRVTMSVDTSKNQFSLKVSSVTAADTAVYFCARVTRDLEWINGDYYMDVWGKGTTVTVSS
VL: QSVLTQPPSASGTPGQRVSISCSGSLSNIGTNYVYWYQQLPGTAPKLLIFKNNQRPSGVPDRFSGSKSGTSASLAISGLRSEDEADYYCAAWDDSLNGYVFGTGTKVTVLG
notes: original EV2038 L-chain
As to B7, the binding result is recorded as “no binding (tested: 1 µg/mL, dilution series)”.

B8: EV2038 CDR-H3 variant P125R (antibody, V domains shown)
VH: QVQLQQWGAGLLKPSETLSLTCAVYGGSFSGYYWGWIRQPPGKGLEWIGEINHSGSANSNPSLKSRVTMSVDTSKNQFSLKVSSVTAADTAVYFCARVTRDLEWIRGDYYMDVWGKGTTVTVSS
VL: QSVLTQPPSASGTPGQRVSISCSGSLSNIGTNYVYWYQQLPGTAPKLLIFKNNQRPSGVPDRFSGSKSGTSASLAISGLRSEDEADYYCAAWDDSLNGYVFGTGTKVTVLG
notes: original EV2038 L-chain
For the molecule B8, the binding result is reported as “no binding (tested: 1 µg/mL, dilution series)”.

B9: EV2038 CDR-H3 variant P125H (antibody, V domains shown)
VH: QVQLQQWGAGLLKPSETLSLTCAVYGGSFSGYYWGWIRQPPGKGLEWIGEINHSGSANSNPSLKSRVTMSVDTSKNQFSLKVSSVTAADTAVYFCARVTRDLEWIHGDYYMDVWGKGTTVTVSS
VL: QSVLTQPPSASGTPGQRVSISCSGSLSNIGTNYVYWYQQLPGTAPKLLIFKNNQRPSGVPDRFSGSKSGTSASLAISGLRSEDEADYYCAAWDDSLNGYVFGTGTKVTVLG
notes: original EV2038 L-chain
In the case of B9, the binding result was “no binding (tested: 1 µg/mL, dilution series)”.

B10: EV2038 CDR-H3 variant P125G (antibody, V domains shown)
VH: QVQLQQWGAGLLKPSETLSLTCAVYGGSFSGYYWGWIRQPPGKGLEWIGEINHSGSANSNPSLKSRVTMSVDTSKNQFSLKVSSVTAADTAVYFCARVTRDLEWIGGDYYMDVWGKGTTVTVSS
VL: QSVLTQPPSASGTPGQRVSISCSGSLSNIGTNYVYWYQQLPGTAPKLLIFKNNQRPSGVPDRFSGSKSGTSASLAISGLRSEDEADYYCAAWDDSLNGYVFGTGTKVTVLG
notes: original EV2038 L-chain
Take B10: the binding result was “no binding (tested: 1 µg/mL, dilution series)”.

B11: EV2038 CDR-H3 variant P125D (antibody, V domains shown)
VH: QVQLQQWGAGLLKPSETLSLTCAVYGGSFSGYYWGWIRQPPGKGLEWIGEINHSGSANSNPSLKSRVTMSVDTSKNQFSLKVSSVTAADTAVYFCARVTRDLEWIDGDYYMDVWGKGTTVTVSS
VL: QSVLTQPPSASGTPGQRVSISCSGSLSNIGTNYVYWYQQLPGTAPKLLIFKNNQRPSGVPDRFSGSKSGTSASLAISGLRSEDEADYYCAAWDDSLNGYVFGTGTKVTVLG
notes: original EV2038 L-chain
Regarding B11, the binding result is reported as “no binding (tested: 1 µg/mL, dilution series)”.

B12: EV2038 CDR-H3 variant P125L (antibody, V domains shown)
VH: QVQLQQWGAGLLKPSETLSLTCAVYGGSFSGYYWGWIRQPPGKGLEWIGEINHSGSANSNPSLKSRVTMSVDTSKNQFSLKVSSVTAADTAVYFCARVTRDLEWILGDYYMDVWGKGTTVTVSS
VL: QSVLTQPPSASGTPGQRVSISCSGSLSNIGTNYVYWYQQLPGTAPKLLIFKNNQRPSGVPDRFSGSKSGTSASLAISGLRSEDEADYYCAAWDDSLNGYVFGTGTKVTVLG
notes: original EV2038 L-chain
Take B12: the binding result is “no binding (tested: 1 µg/mL, dilution series)”.

B13: EV2038 CDR-H3 variant P125Y (antibody, V domains shown)
VH: QVQLQQWGAGLLKPSETLSLTCAVYGGSFSGYYWGWIRQPPGKGLEWIGEINHSGSANSNPSLKSRVTMSVDTSKNQFSLKVSSVTAADTAVYFCARVTRDLEWIYGDYYMDVWGKGTTVTVSS
VL: QSVLTQPPSASGTPGQRVSISCSGSLSNIGTNYVYWYQQLPGTAPKLLIFKNNQRPSGVPDRFSGSKSGTSASLAISGLRSEDEADYYCAAWDDSLNGYVFGTGTKVTVLG
notes: original EV2038 L-chain
On to B13, for which the binding result was “no binding (tested: 1 µg/mL, dilution series)”.

B14: EV2038 CDR-H3 variant P125F (antibody, V domains shown)
VH: QVQLQQWGAGLLKPSETLSLTCAVYGGSFSGYYWGWIRQPPGKGLEWIGEINHSGSANSNPSLKSRVTMSVDTSKNQFSLKVSSVTAADTAVYFCARVTRDLEWIFGDYYMDVWGKGTTVTVSS
VL: QSVLTQPPSASGTPGQRVSISCSGSLSNIGTNYVYWYQQLPGTAPKLLIFKNNQRPSGVPDRFSGSKSGTSASLAISGLRSEDEADYYCAAWDDSLNGYVFGTGTKVTVLG
notes: original EV2038 L-chain
Consider B14, for which the binding result is “no binding (tested: 1 µg/mL, dilution series)”.

B15: EV2038 CDR-H3 variant P125V (antibody, V domains shown)
VH: QVQLQQWGAGLLKPSETLSLTCAVYGGSFSGYYWGWIRQPPGKGLEWIGEINHSGSANSNPSLKSRVTMSVDTSKNQFSLKVSSVTAADTAVYFCARVTRDLEWIVGDYYMDVWGKGTTVTVSS
VL: QSVLTQPPSASGTPGQRVSISCSGSLSNIGTNYVYWYQQLPGTAPKLLIFKNNQRPSGVPDRFSGSKSGTSASLAISGLRSEDEADYYCAAWDDSLNGYVFGTGTKVTVLG
notes: original EV2038 L-chain
Consider B15, for which the binding result is “no binding (tested: 1 µg/mL, dilution series)”.

B16: EV2038 CDR-H3 variant P125Q (antibody, V domains shown)
VH: QVQLQQWGAGLLKPSETLSLTCAVYGGSFSGYYWGWIRQPPGKGLEWIGEINHSGSANSNPSLKSRVTMSVDTSKNQFSLKVSSVTAADTAVYFCARVTRDLEWIQGDYYMDVWGKGTTVTVSS
VL: QSVLTQPPSASGTPGQRVSISCSGSLSNIGTNYVYWYQQLPGTAPKLLIFKNNQRPSGVPDRFSGSKSGTSASLAISGLRSEDEADYYCAAWDDSLNGYVFGTGTKVTVLG
notes: original EV2038 L-chain
Consider B16, for which the binding result is “no binding (tested: 1 µg/mL, dilution series)”.

B17: EV2038 CDR-H3 variant P125K (antibody, V domains shown)
VH: QVQLQQWGAGLLKPSETLSLTCAVYGGSFSGYYWGWIRQPPGKGLEWIGEINHSGSANSNPSLKSRVTMSVDTSKNQFSLKVSSVTAADTAVYFCARVTRDLEWIKGDYYMDVWGKGTTVTVSS
VL: QSVLTQPPSASGTPGQRVSISCSGSLSNIGTNYVYWYQQLPGTAPKLLIFKNNQRPSGVPDRFSGSKSGTSASLAISGLRSEDEADYYCAAWDDSLNGYVFGTGTKVTVLG
notes: original EV2038 L-chain
As for B17, the binding result is “no binding (tested: 1 µg/mL, dilution series)”.

B18: EV2038 CDR-H3 variant P125E (antibody, V domains shown)
VH: QVQLQQWGAGLLKPSETLSLTCAVYGGSFSGYYWGWIRQPPGKGLEWIGEINHSGSANSNPSLKSRVTMSVDTSKNQFSLKVSSVTAADTAVYFCARVTRDLEWIEGDYYMDVWGKGTTVTVSS
VL: QSVLTQPPSASGTPGQRVSISCSGSLSNIGTNYVYWYQQLPGTAPKLLIFKNNQRPSGVPDRFSGSKSGTSASLAISGLRSEDEADYYCAAWDDSLNGYVFGTGTKVTVLG
notes: original EV2038 L-chain
For the molecule B18, the binding result is listed as “no binding (tested: 1 µg/mL, dilution series)”.

B19: EV2038 CDR-H3 variant P125W (antibody, V domains shown)
VH: QVQLQQWGAGLLKPSETLSLTCAVYGGSFSGYYWGWIRQPPGKGLEWIGEINHSGSANSNPSLKSRVTMSVDTSKNQFSLKVSSVTAADTAVYFCARVTRDLEWIWGDYYMDVWGKGTTVTVSS
VL: QSVLTQPPSASGTPGQRVSISCSGSLSNIGTNYVYWYQQLPGTAPKLLIFKNNQRPSGVPDRFSGSKSGTSASLAISGLRSEDEADYYCAAWDDSLNGYVFGTGTKVTVLG
notes: original EV2038 L-chain
Turning to B19, the binding result was “no binding (tested: 1 µg/mL, dilution series)”.
